Consider nine molecules from patent publication US20230052369A1 (Zymeworks, published 2023).

Positions count from the first letter of the chain named.

In experiment [1] the target is T1, truncated human 4-1BB domain 3 and 4 only construct (residues 86-255), on cells (human, UniProt Q07011 86-255).
T1 construct: on 293E6 cells co-transfected with mouse 4-1BB; also called 4-1BB domain 3 and 4 only construct (amino acids 86-255)
The experiment can be described thus: flow cytometry, transfected 293E6 cells. On the technique in general: In flow cytometry, cells or beads pass a laser one at a time.

The target of experiment [2] is T2, human 4-1BB, full-length, expressed on cells (human, UniProt Q07011 24-255).
T2 construct: also called CD137; TNFRSF9
T2 sequence (Q07011 24-255): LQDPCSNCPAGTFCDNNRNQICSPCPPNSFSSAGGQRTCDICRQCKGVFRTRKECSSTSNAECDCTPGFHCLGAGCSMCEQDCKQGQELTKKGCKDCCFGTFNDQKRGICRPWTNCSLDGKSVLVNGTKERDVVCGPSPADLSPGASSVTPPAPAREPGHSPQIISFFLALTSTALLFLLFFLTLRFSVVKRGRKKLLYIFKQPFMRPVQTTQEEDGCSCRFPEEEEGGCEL
The experiment can be described thus: flow cytometry, transfected 293E6 cells.

Experiment [3] concerns the target T3, Mouse 4-1BB-Flag, on HEK293-6e cells (Mouse (Mus musculus), UniProt P20334 24-208).
T3 construct: also called CL#11063
The experiment can be described thus: CellInsight cell binding, transfected HEK293-6e.

The target of experiment [4] is T4, 4-1BB dog (dog 4-1BB ECD-TEV-IgG1 Fc-10x His) (dog).
T4 construct: Uniprot E2R1R9 residues 24-186 fused to TEV site, IgG1 Fc and His tag
T4 sequence (chain, as listed by the source limits assumed): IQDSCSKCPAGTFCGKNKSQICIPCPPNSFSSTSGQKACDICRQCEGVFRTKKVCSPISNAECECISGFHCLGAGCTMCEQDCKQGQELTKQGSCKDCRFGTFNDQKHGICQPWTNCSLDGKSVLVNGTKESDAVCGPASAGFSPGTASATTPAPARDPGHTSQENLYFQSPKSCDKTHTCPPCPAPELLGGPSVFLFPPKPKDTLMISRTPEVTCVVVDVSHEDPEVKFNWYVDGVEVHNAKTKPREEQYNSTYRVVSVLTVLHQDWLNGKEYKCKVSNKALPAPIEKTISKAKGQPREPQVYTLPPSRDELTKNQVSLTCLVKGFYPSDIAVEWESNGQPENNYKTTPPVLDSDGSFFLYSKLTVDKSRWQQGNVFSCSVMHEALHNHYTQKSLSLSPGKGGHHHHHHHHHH
In words: ELISA, coated 4-1BB-Fc. (In general: An ELISA detects its analyte on a solid surface through an enzyme-linked reagent.)

Experiment [5] deals with T5, 4-1BB dog-human (human-dog chimeric 4-1BB ECD-TEV-IgG1 Fc-10x His) (human with dog residues in domain 4).
T5 construct: Human 4-1BB ECD with K115Q, C121R, R134Q, R154S and V156A (already in the entry); also called dog-human chimeric 4-1BB; hybrid 4-1BB
T5 sequence (chain, as listed by the source mutant limits assumed): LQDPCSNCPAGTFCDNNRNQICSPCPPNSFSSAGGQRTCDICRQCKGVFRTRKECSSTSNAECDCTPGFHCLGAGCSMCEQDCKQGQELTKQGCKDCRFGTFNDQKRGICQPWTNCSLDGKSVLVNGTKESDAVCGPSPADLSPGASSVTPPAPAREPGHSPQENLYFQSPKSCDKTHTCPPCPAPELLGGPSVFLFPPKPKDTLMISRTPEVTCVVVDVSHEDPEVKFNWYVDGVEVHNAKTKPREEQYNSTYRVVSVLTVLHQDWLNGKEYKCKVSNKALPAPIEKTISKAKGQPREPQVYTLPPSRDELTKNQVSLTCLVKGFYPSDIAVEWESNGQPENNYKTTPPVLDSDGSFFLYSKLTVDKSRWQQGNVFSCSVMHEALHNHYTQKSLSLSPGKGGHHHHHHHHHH
The experiment can be described thus: ELISA, coated 4-1BB-Fc.

In experiment [6] the target is T6, 4-1BB human (human 4-1BB ECD-TEV-IgG1 hinge-CH2-CH3-10x His) (human).
T6 construct: 4-1BB residues 24-186 fused to TEV site, IgG1 Fc and His tag; the entry is the whole fusion; also called soluble human 4-1BB-Fc
T6 sequence (chain, as listed by the source limits assumed): as the sequence (chain, as listed by the source mutant limits assumed) above, with Q92K, R98C, Q111R, S131R, A133V counted along it
In words: ELISA, coated 4-1BB-Fc.

Experiment [7] addresses T7, purified human monomeric 4-1BB (human, UniProt Q07011 24-186).
T7 construct: the assay used the 4-1BB part released by Factor Xa with the Fc removed; also called h4-1BB; human 4-1BB
The experiment can be described thus: SPR, mean n=3.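 Further: antibodies captured on anti-human Fc chip, 4-1BB injected as five-point two-fold series from 40 nM by single-cycle kinetics at 25 °C, sensorgrams fitted to 1:1 Langmuir model.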 On the technique in general: In SPR one partner is held on a chip, and binding of the other changes the refractive index at the surface.

The target in experiment [8] is T2, human 4-1BB, full-length, expressed on …. The experiment can be described thus: flow cytometry, Jurkat-4-1BB.
Experiment [9] concerns the target T8, Cyno 4-1BB-Flag, on HEK293-6e cells (Cynomolgus (Macaca fascicularis)).
T8 construct: also called Cynomolgus 4-1BB; CL#11070
T8 chain: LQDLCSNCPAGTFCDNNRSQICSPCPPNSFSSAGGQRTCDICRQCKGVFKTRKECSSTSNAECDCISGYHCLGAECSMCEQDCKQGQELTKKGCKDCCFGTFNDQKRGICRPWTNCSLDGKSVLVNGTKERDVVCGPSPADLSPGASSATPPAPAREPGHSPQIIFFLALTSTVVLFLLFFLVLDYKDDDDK
In words: CellInsight cell binding, transfected HEK293-6e.

T7 sequence (Q07011 other isoform, or with tags, fused parts or gaps limits assumed): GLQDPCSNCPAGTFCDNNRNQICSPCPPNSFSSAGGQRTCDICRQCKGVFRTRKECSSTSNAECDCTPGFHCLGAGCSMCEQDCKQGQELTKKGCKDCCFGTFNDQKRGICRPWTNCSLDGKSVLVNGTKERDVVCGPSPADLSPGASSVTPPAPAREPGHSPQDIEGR
T3 sequence (P20334 other isoform, or with tags, fused parts or gaps limits assumed): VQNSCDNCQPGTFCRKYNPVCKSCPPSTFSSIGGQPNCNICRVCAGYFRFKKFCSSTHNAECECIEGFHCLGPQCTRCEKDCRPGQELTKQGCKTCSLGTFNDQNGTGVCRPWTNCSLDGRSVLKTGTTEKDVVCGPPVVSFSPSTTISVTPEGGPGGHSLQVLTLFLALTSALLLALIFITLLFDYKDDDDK
T1 sequence (Q07011 86-255): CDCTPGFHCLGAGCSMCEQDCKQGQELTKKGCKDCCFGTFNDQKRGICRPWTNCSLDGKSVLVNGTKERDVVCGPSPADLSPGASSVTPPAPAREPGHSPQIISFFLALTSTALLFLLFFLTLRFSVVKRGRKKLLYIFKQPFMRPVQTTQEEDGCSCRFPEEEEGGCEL

B1: v20037 (antibody, human IgG1, kappa, L234A L235A, V domains shown)
VH: QVQLKESGPGLVAPSQSLSITCTVSGFSLTSYAISWVRQPPGKGLEWLGVIWPGGGTNYNSALKSRLSISKDNSKSQVFLKMNSLQTDDTARYYCARGTGTWYFDVWGAGTTVTVSS
VL: DIQMTQTTSSLSASLGDRVTISCSASQGISNYLNWYQQKPDGTVKLLIYYTSSLHSGVPSRFSGSGSGTDYSLTISNLEPEDIATYYCQQYSDLPWTFGGGTKLEIKR
notes: Mouse-human chimera; also called 6B3
On to B1, for which the binding result is on record as “no binding (tested: 2.5 µg of antibody)” in [1]; “binds” in experiment [2]; “no binding” in experiment [3]; “no binding” in experiment [4]; “binds” in experiment [5]; “binds” in experiment [6].

B2: v20032 (antibody, human IgG1, kappa, L234A L235A, V domains shown)
VH: B1 VH with S35N, I51L, T99S
VL: B1 VL with I21F, S56L, D93K
notes: Mouse-human chimera; also called 4E6
On to B2, for which the binding result is “no binding (tested: 2.5 µg of antibody)” in [1]; “binds” in experiment [2]; “no binding” in experiment [3]; “no binding” in [4]; “binds” in experiment [5]; “binds” in experiment [6].

B3: v20022 (antibody, human IgG1, kappa, L234A L235A, V domains shown)
VH: B1 VH with S31T, V50I, K75R, T99A
VL: B1 VL with T7S, L15V, D93K, L94F
notes: Mouse-human chimera; also called 1C8; 1C8 mouse-human parental chimera
For orientation: Kd means the concentration at which binding is half-saturated. The EC50 is the midpoint of the concentration-response curve. High values mean lower potency in that assay, low ones higher potency in that assay. B3 registered a Kd in experiment [7] of 582 nM. The binding result is listed as “no binding (tested: 2.5 µg of antibody)” in [1]; “no binding” in experiment [3]; “binds” in experiment [9]; “no binding” in [4]; “binds” in experiment [5]; “binds” in experiment [6]. This molecule gave an EC50 in experiment [8] of 17.3 nM.

B4: v20023 (antibody, human IgG1, kappa, L234A L235A, V domains shown)
VH: EVQLVESGGGLVKPGGSRKLSCAASGFTFSEFGMHWVRQAPDKGLKWVAYISSGGSTIYYADTVKGRFTISRDNAKNTLFLQMTSLRSEDTAMYYCARDWVDYWGQGTTLTVSS
VL: NIVMTQSPKSMSMSVGERVTLSCKASENVGSYVSWYQQKPEKSPKLLIYGASNRYTGVPDRFTGSGSATDFTLTISSVQAEDLADYHCGQSYSYPLTFGAGTKLELKR
notes: Mouse-human chimera; also called 1G1; 1G1 mouse-human parental chimera
B4 had a Kd in experiment [7] of 49.6 nM. Further, the binding result in [1] is recorded as “no binding (tested: 2.5 µg of antibody)”; in experiment [3], “no binding”; in experiment [9], “binds”; in experiment [4] it was “binds”; in experiment [6], “binds”. The EC50 in [8] came out at 0.337 nM.

B5: v20029 (antibody, human IgG1, kappa, L234A L235A, V domains shown)
VH: B4 VH with E1Q, V5Q, K46E, G55S, T109A
VL: B4 VL
notes: Mouse-human chimera; also called 3E7
On to B5, for which the binding result in experiment [1] is reported as “no binding (tested: 2.5 µg of antibody)”; in experiment [2] it was “binds”; in [3], “no binding”; in [9], “binds”; in [4], “binds”; in [6], “binds”.

B6: v20031 (antibody, human IgG1, kappa, L234A L235A, V domains shown)
VH: QVQLQQSGPELVKPGASVKISCKASGYVFSSYWMNWVKQRPGKGLEWIGRIYPGNGDTNYNGKFKDKATLTADKFSSTAYMQLSNLTSEDSAVYFCASYYELDYWGQGTSVTVSS
VL: DVVMTQTPLSLPVSLGDQASISCRSSQSLVHSNGNTYLHWYLQKPGQSPKLLIYKVSNRFFGVPDRFSGSGSGTDFTLKISRVEAEDLGVYFCSQTTYVPLTFGAGTKLELKR
notes: Mouse-human chimera; also called 4B11; printed as 4B1
Take B6: the binding result in experiment [3] and in experiment [9] was “no binding” throughout.

B7: v20025 (antibody, human IgG1, kappa, L234A L235A, V domains shown)
VH: QVQLKQSGPGLVQPSQSLSITCTVSGFSLTSYGVHWVRQSPGKGLEWLGVIWSGGSTDYNAAFISRLSISKDNSKSQVFFKMNSLQADDTAIYYCARNPLTATVMDYWGQGTSVTVSS
VL: DIVMTQSQKFMSTSVGDRVSVTCKASQNVGTNVAWYQQKPGQSRTVLIYSASYRHSGVPDRFTGSGSGTDFTLTISNVQSEDLAEYFCQQYNSYPLTFGTGTKLELKR
notes: Mouse-human chimera; also called 2E8
On to B7, for which the binding result in [1] was “no binding (tested: 2.5 µg of antibody)”; in experiment [2], “binds”; in [3], “no binding”; in [9], “binds”; in [4], “no binding”; in experiment [5], “binds”. In addition, the binding result in experiment [6] is reported as “binds”.

B8: v20036 (antibody, human IgG1, kappa, L234A L235A, V domains shown)
VH: B7 VH with K5Q, Q6E, S15T, T30I
VL: B7 VL with R44P, T45K, V46A, H55D, F87L, T100A
notes: Mouse-human chimera; also called 5G8; 5G8 mouse-human parental chimera
Consider B8, for which the Kd in experiment [7] was 266 nM. The binding result is reported as “no binding (tested: 2.5 µg of antibody)” in [1]; “no binding” in [3]; “no binding” in experiment [4]; “binds” in experiment [5]; “binds” in experiment [6]. The molecule also had an EC50 in experiment [8] of 16.9 nM.

B9: v20020 (antibody, V domains shown)
VH: QVQLQQPGAELVKPGASVKLSCKASGYTFTSFWINWVKQRPGQGLEWIGNIYPDSSSTNYNEKFKNKATLTVDTSSSTAYMQLSSLTSDDSAVYFCARSLTFDYWGQGTTLTVSS
VL: DVVMTQTPLSLPVSLGDQASISCRSSQSIVHSNGNTYLEWYLQKPGQSPKLLIYKVSNRFSGVPDRFSARGSGTDFSLKISRVEAEDLGVYYCFQGSHVPYTFGGGTKLEIK
notes: Mouse-human chimera: mouse VH on human CH1-hinge-CH2-CH3 (IgG1), mouse VL on human kappa CL; also called 1B2
In the case of B9, the binding result in experiment [3] and in [9] was “no binding” in each case.
